Article PMC4766841

Target: CIB1N-DBD (CIB1N (1-170) fused to the Gal4 DNA binding domain) (Arabidopsis thaliana) (UniProt Q8GY61)
Assay: two-hybrid

Sequence of UniProt Q8GY61 (Q8GY61 1-170): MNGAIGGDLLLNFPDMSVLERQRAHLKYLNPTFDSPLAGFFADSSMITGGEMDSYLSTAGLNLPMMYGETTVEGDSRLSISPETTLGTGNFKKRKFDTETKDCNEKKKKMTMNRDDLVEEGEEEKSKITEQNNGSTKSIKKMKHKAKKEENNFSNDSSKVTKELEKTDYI

β-Gal Light: 47.1
Substance: CRY2PHR-AD (CRY2PHR fused to the Gal4 activation domain) (from UniProt Q96524 1-498) (domain or fragment)
